The values below come from the DeepSol protein solubility set.

A short description of this series: soluble on expression in E. coli; label from the status in PepcDB or PDB records.
For “GPGSMLLSVPEAHTEVITSLQFSPHHASVLCSTSGDDTAALWDLRNPSDSCNIARLTHHREPVNHALFIEESEPCLLTASDDRTIAYWDVREISQPVAVIRGFGDGINKMLRLPVSRRSGNACVNGGACCLIVSACDDGAVYIHDVALCGDTRRQSGMPVEGAGDTFSSTGNLVDRFMASTSTVNDLVLSPNPNLLLTASEDCAIRLWDIGPIFGGQRTQDERLVTSFDEFENPVNHIAVINSPRVTQFVQDEGQGGHSGCWLYAACSEFIFAVDLDPVSGALGEGARTLTGHQDYVRGLEFVGDDTLLTVSDDSTVIEWSLRTSNPVRQVKLHEGLVMASAVSAARDVLATGTDGGEMRVWRLPFLTE”, the “soluble on expression in E. coli” value is reported as “not soluble”. For the sequence “MGSDKIHHHHHHMKRLSPEVFKVPIDRIRNGYYSDIYFINYVKVLKRDSRHPRVYYQFFPRKDAVICGIDEALAILKFCTGYYKDEEKARELFEEILKLDKEMQAASVEMDVQKILELTQKKWDLRLKLNDLWVDKWDEIEVHALYDGEEAKEGEPIMTIEGDPTYFGYLETVLLGVIARATSTATAVKKVVKAARGKPVLFFSARFDHYWVQATDGYAALKAGAFGVSTDANADYWGVKSMGTMPHALIACYDGKTEDAAIAFDRHMEEDVNRIVLVDWDNDVIGTTFRVIEKFYEYVMKKPFKLGVTDPSPIIGPGKNKIWGVRFDTSGNLRDKSVVPKDESSFGVCPELVWRARQEFDKVGLRDLKIVVSGGFDEKKIDLFERLGVPADAYGVGSRLLREKVDITADIVEVNGRHCAKVGRYKIENPRLKKVGKRYWEEE”, the “soluble on expression in E. coli” value is reported as “not soluble”. As to “TDSTGIDLHEFLVNTLKKNPRDRMMLLKLEQEILEFINDNNNQFKKFPQMTSYHRMLLHRVAAYFGMDHNVDQTGKAVIINKTSNTRIPEQRFSEHIKDEKNTEFQQRFIL”, the “soluble on expression in E. coli” value is “soluble”. For the sequence “METFYRTHSYLVEHTNAPVRRDLMDEIDWNDRLIGIKGTRGVGKTTFLLQYAKEKFGTDHSCLFINMNNFYFSKYTLVEFAAEFVKRGGKVLLIDQVFKYPEWSHDLRACYEMFPTLKIIFTGSSVMRLKEENPELSGIAKVYYLRGFSFREYLNLQSGNCFRAYTLQEILENHEQIAKTILRNVKPLDYFQDYLHHGFYPFFLEKRNFSENLLKTMNMMIEVDILLIKQIELKYLSKIKKLLYLLAVDGPVAPNVSQLATEIQTSRATVMNYIKYLADARLINMVYPKGEEFPKKPSKLMMHNTNLMYSIYPVKVEEQDVLDTFFMNTLYKDHKLYKGDKGTSFMVDNGLHFRICAEGCKFKNNPNVYYALHKLELGHGNMIPLWLFGFLY”, the “soluble on expression in E. coli” value is listed as “not soluble”. Then “LDQILRATVEEVRAFLGTDRVKVYRFDPEGHGTVVAEARGGERLPSLLGLTFPAGDIPEEARRLFRLAQVRVIVDVEAQSRSISQPESWGLSARVPLGEPLQRPVDPCHVHYLKSMGVASSLVVPLMHHQELWGLLVSHHAEPRPYSQEELQVVQLLADQVSIAIAQAELSL”, with “soluble”; and “MSLGFVPVRGLHHFAYRCRDAEETRQFYEGILGLPLVHVVRAEEVPSTGEYCPYMHLFFEMKDGSCVAFFDLDDDTVPLPSSNTPVWAQHLALRVDSVAAVEEAKRKLEQAGVKVLGPVDHDGFVCSIYFFDPNGVRLELTTDTAEGHHHHHH”, with “soluble”; and “MNRIYLYLLIVLILAGCSSPGGRYDMSDDQAPDTPLSVEHIEDAHPQYEPYSFGGNKDYNLRGKSYRIIKNPKGFTESGKASWYGKKFHGHLTSNGEIYDMYSMTAAHKTLPIPSYVKVTNTDNGKSTVVRVNDRGPFHDGRIIDLSYAAAYKIGVVQAGTANVRIEVITVDKPTKPRPKSKNNALEYVIQVVSSQHIERVRTLAQNLGQNLSAPSFVESTNNTHRLFLGPFTDDDLTQTLLEQVKSAGYDSAFIKTINKRAK”, with “not soluble”. The result for “SMFRDQVGVLAGWFKGWNECEQTVALLSLLKRVSQTQARFLQLCLEHSLADCAELHVLEREANSPGIINQWQQESKDKVISLLLTHLPLLKPGNLDAKVEYMKLLPKTLAHSIEHNQHIEESRQLLSYALIHPATSLEDRSALAMWLNHLEDRTSTSFGGQNRGRSDSVDYGQTHYYHQRQNSDDKLNGWQNSRDSGICINASNWQDKSMGCENGHVPLYSSSSVPTTINTIGTSTSTSKFPGIPLT” reads “soluble”; that for “MGSDKIHHHHHHMTPTLPDRKQNPPSAPAATVSLRLLEIFMLVAQEGSVSAAANRLNLTQAAVSQAITVLEQALDVKLLDRSVRPPLLTLRGSTALQYAREILAKVHEFEDAMRYSGSGRVPLLRIGMLNSFASTAGAFVLNQLRDIAAEWTVASGFRETCIQALLDRQSDVIITTDETPAPSEIEVFPIFSEPFVAVVPASFDGKTERLQDIADKLDFIHYGHDSHMGSKITNYLKKIGTVPARRYQFDTTDAALHMVAGGFGWAIVTPLIYLKSRVEGSGVRVVPLTRLPIHRTFIVGMRRGEGSDIAQRVRTAAIITLRDVILPQIEAVLPEASKGVSVAEIEPKASTGKRKGSRRDSAGS”, “not soluble”. The result for “MVKQISVFVENKPGRLAAVTEVLMKHNINIRAFTIADAGDFGIIRMVVDKTDEAYQALKEAGFTVRLTNVLAVEVEDKPGALHRIAKALGDAGVNIDYVYAFTSEKHKALIIFRVDDREKAKEVLEKLGVLFKGEIN” reads “not soluble”; that for “MLDPGPNPAPRPSRDRAPHAVVIGSGFGGLAAAVRLGAKGYRVTVLEKLDKAGGRAYVHKQDGFSFDAGPTIVTAPYLFEELWKLCGKRMSDDITLKPMSPFYRIRFDDGTHFDYSDDRDAVLDQIAKFCPDDVPAYDRFMAASHEIFKVGFEQLGDQPFSHFTDMLKIAPAMIKLESYRSVYGLVAKHFKDPKLRQVFSFHPLLIGGNPFMSSSVYCLITYLEKQWGVHSAMGGTGALVTGLVNLIEGQGNTIRYNQDVRQIVVENGTACGVKLADGEVIKADIVVSNADSASTYRYLLPPETRKRWTDAKIEKSRYSMSLFVWYFGTKRRYEDVKHHTILLGPRYKELISDIFSRKVVAEDFSLYLHRPTATDPSLAPQGCDTFYVLSPVPNLLGDTDWHTKAETYRASIAKMLGATVLPDLENQIATSKITTPIDFQDRLSSFRGAAFGLEPVLWQSAWFRPHNQSEDVKRLYLVGAGTHPGAGLPGVLSSARVLDALVPEADSLVTSLEHHHHHH”, “not soluble”.

On to “SMSQIMYNYPAMLGHAGDMAGYAGTLQSLGAEIAVEQAALQSAWQGDTGITYQAWQAQWNQAMEDLVRAYHAMSSTHEANTMAMMARDTAEAAKWGG”, for which the “soluble on expression in E. coli” value was “soluble”. The result for “MELFLTGVVLKPKGLKGELKVKPVTDFPESFLTRREYYIGKTPEDAVLRKVQSARFHQGFAWLVFEGAGSREGAEALVGCGLYVTRDALVAMPDDRAYIHELIGLDVFDETEGRVGKISDVLQMPAHDVYEVDTGDRKVLIPAVEDFITETDLEKGMVRLKRFKEFLLEHHHHHH” reads “soluble”.

For the sequence “MSQIAGYFSSDSGVYPNPVKDVLNIKHEGDFGVRIFDFSGRLVLSMENTRMIGVKVLTAGAYVIKLMTQGSTPAERFIKL”, the “soluble on expression in E. coli” value is given as “not soluble”. The result for “DIELTQTPVSLAASLGDRVTISCRASQDINNFLNWYQQKPDGTIKLLIYYTSRLHAGVPSRFSGSGSGTDYSLTISNLEPEDIATYFCQHHIKFPWTFGAGTKLEIK” reads “soluble”. “MATQTSKNPESVHDFTVKDAKENDVDLSIFKGKVLLIVNVASKCGMTNSNYAEMNQLYEKYKDQGLEILAFPCNQFGEEEPGTNDQITDFVCTRFKSEFPIFDKIDVNGENASPLYRFLKLGKWGIFGDDIQWNFAKFLVNKDGQVVDRYYPTTSPLSLERDIKQLLEIS”: the “soluble on expression in E. coli” value was “soluble”.
